For test [1], the target named is PD-L1 (human) (UniProt Q9NZQ7).
Target sequence in this assay (Q9NZQ7 19-290): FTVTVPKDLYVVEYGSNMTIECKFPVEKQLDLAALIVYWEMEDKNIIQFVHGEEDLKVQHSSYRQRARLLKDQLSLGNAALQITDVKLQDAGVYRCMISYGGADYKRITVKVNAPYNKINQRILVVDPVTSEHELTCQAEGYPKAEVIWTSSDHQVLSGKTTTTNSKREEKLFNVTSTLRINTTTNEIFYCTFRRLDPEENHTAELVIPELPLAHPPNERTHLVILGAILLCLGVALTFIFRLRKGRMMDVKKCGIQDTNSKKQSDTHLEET
Test [2] concerns the target CD28 (human) (UniProt P10747).
Test [3] concerns the target CD28 (human) (UniProt P10747). In words: flow cytometry, Jurkat/IL2 reporter cells (CD28).
Test [4] concerns the target PD-L1 (human) (UniProt Q9NZQ7). In words: flow cytometry, CHO/huPD-L1 cells; vs WT CD80 ECD-Fc (Abcam). A general note: A flow cytometer gives signals particle by particle.
Target sequence in this assay (Q9NZQ7 19-290): as above
Test [5] deals with CD28 (human) (UniProt P10747). In words: flow cytometry, Jurkat/IL2 reporter cells (CD28). The source holds these as a separate data set.
Test [6] addresses PD-L1 (human) (UniProt Q9NZQ7). In words: flow cytometry, CHO cells expressing huPD-L1.
Target sequence in this assay (Q9NZQ7 19-290): as above
Test [7] addresses human CTLA-4 (human) (UniProt P16410). In words: flow cytometry, CHO cells expressing huCTLA-4.
The target in test [8] is PD-L1 (human) (UniProt Q9NZQ7). In words: flow cytometry, CHO cells expressing huPD-L1. The source holds these as a separate data set.
Test [9] has as its target PD-L1 (human) (UniProt Q9NZQ7). This is another data set of the same source.
Target sequence in this assay (Q9NZQ7 19-290): as above
The target in test [10] is CD28 (human) (UniProt P10747). The source holds these as a separate data set.
The target in test [11] is CD28 (human) (UniProt P10747). In words: flow cytometry, Jurkat cells (CD28).
In test [12] the target is human CTLA-4 (human) (UniProt P16410). In words: flow cytometry, CHO cells stably expressing CTLA4.
Test [13] addresses PD-L1 (human) (UniProt Q9NZQ7). In words: flow cytometry, CHO cells stably expressing PD-L1.
Target sequence in this assay (Q9NZQ7 19-290): as above
Test [14] has as its target PD-L1 (human) (UniProt Q9NZQ7). In words: flow cytometry, MFI on CHO/PD-L1 over MFI on Jurkat (CD28).
Target sequence in this assay (Q9NZQ7 19-290): as above
The target in test [15] is PD-L1 (human) (UniProt Q9NZQ7). In words: flow cytometry, CHO cells expressing huPD-L1. This is another data set of the same source.
Test [16] deals with CD28 (human) (UniProt P10747). In words: flow cytometry, Jurkat/IL2 reporter cells (endogenous CD28).
Test [17] concerns the target PD-L1 (human) (UniProt Q9NZQ7). This is another data set of the same source.
In test [18] the target is CD28 (human) (UniProt P10747). The source holds these as a separate data set.
Test [19] has as its target CD28 (human) (UniProt P10747). The source holds these as a separate data set.
In test [20] the target is CD28 (human) (UniProt P10747). In words: flow cytometry, Jurkat cells (CD28); MFI over CD80 WT IgV-Fc.
The target in test [21] is human CTLA-4 (human) (UniProt P16410). In words: flow cytometry, CHO cells stably expressing CTLA4. This is another data set of the same source.
The target of test [22] is CD28 (human) (UniProt P10747). In words: flow cytometry, Jurkat cells (CD28). This is another data set of the same source.
The target in test [23] is human CTLA-4 (human) (UniProt P16410). In words: flow cytometry, CHO/CTLA4 cells; MFI over CD80 WT IgV-Fc.
For test [24], the target named is PD-L1 (human) (UniProt Q9NZQ7). In words: flow cytometry, CHO/PD-L1 cells; MFI over CD80 WT IgV-Fc.
Test [25] has as its target PD-L1 (human) (UniProt Q9NZQ7). In words: flow cytometry, CHO cells stably expressing PD-L1. This is another data set of the same source.

Like-named read-outs stand apart in the source and are kept apart here.

Sequence of human CTLA-4 (human) (P16410 36-223): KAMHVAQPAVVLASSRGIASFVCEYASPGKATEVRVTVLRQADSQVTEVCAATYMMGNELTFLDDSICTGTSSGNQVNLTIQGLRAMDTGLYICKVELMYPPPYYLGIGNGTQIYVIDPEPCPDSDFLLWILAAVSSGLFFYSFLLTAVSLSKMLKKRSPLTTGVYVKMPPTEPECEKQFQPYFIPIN

As to “CD80 IgV-Fc H18Y/E35D/M38I/M47L/V68M/L85M (Fc fusion)”, the RLU at 5.0 nM: Fold Increase over WT CD80-IgV-Fc in test [1] and in test [2] was 0.5 fold in each case.

“variant CD80 IgV-Fc Q27H/E35D/D46V/M47L/A71G (Fc fusion)” gave an MFI at 33.3 nM in test [3] of 10400 MFI.

With “variant CD80 IgV-Fc D46V/V68M (Fc fusion)”, the Fold change to WT CD80 in test [4] was found to be 17.7 fold. For the same substance, the MFI at 33.3 nM in test [5] is 556 MFI; in test [6], 2270 MFI; in [7], 5330 MFI.

With “variant CD80 IgV-Fc Q33L/E35D/M43I/Y53F/T62S/L85Q (Fc fusion)”, the MFI at 33.3 nM turned out to be 1024 MFI in [3] and 72100 MFI in test [8].

Turning to “CD80 IgV-Fc H18Y/E35D/M47L/Y53F/V68M/A71G (Fc fusion)”, the RLU at 5.0 nM: Fold Increase over WT CD80-IgV-Fc in [9] came to 5.7 fold; in [10], 5.7 fold; in test [1] it was 0.3 fold; in test [2], 0.3 fold. The results for the Fold change to WT CD80 in test [11], in test [12] and in test [13] were 11.6 fold, 18.7 fold and 135 fold, respectively. In addition, the figures for the MFI at 33.3 nM in [11], in test [12] and in test [13] were 478 MFI, 19500 MFI and 9580 MFI, respectively. The Ratio of PDL1:CD28 in test [14] worked out at 20.

Consider WT CD80 ECD-Fc (R&D) (Fc fusion), for which the MFI at 33.3 nM in test [3] was determined as 18000 MFI; in test [15] it was 7940 MFI; in [16], 7630 MFI; in test [8], 11900 MFI.

“CD80 IgV-Fc T13R/Q33L/E35D/M47V/T62S/V68M/L85M (Fc fusion)”: the RLU at 5.0 nM: Fold Increase over WT CD80-IgV-Fc in test [1] and in test [2] was 0.3 fold in each case.

As for “CD80 V22A/E35D/M47L/A71G IgV-Fc (Fc fusion)”, the IL2-luciferase reporter (RLU), fold increase over WT CD80-IgV-Fc at 5.0 nM in test [17] and in test [18] was 6.5 fold each time.

Regarding “variant CD80 IgV-Fc E35D/A71D (SEQ ID NO 194) (Fc fusion)”, the Fold increase in IL2 reporter signal (Jurkat/IL2 reporter assay) (fold vs WT CD80 IgV-Fc) in [19] is 0.2.

For “variant CD80 IgV-Fc V22L/M38V/M47T/A71D/L85M (Fc fusion)”, in test [19], the Fold increase in IL2 reporter signal (Jurkat/IL2 reporter assay) (fold vs WT CD80 IgV-Fc) was determined as 0.43.

Turning to “WT CD80 ECD-Fc (control of Table E5) (Fc fusion)”, the Fold increase in IL2 reporter signal (Jurkat/IL2 reporter assay) (fold vs WT CD80 IgV-Fc) in test [19] is 0.93.

As for “variant CD80 IgV-Fc E35D/M47I/Y87Q/K89E (Fc fusion)”, the MFI at 33.3 nM in test [3] was 15500 MFI; in test [8], 29800 MFI.

Regarding “CD80 IgV-Fc E35D/D46E/M47V/V68M/L85Q (Fc fusion)”, the RLU at 5.0 nM: Fold Increase over WT CD80-IgV-Fc in test [1] and in [2] was 2.5 fold throughout.

For the substance “variant CD80 IgV-Fc E35D/A71D (SEQ ID NO 176) (Fc fusion)”, the Fold increase in IL2 reporter signal (Jurkat/IL2 reporter assay) (fold vs WT CD80 IgV-Fc) in test [19] was 0.36.

Consider “variant CD80 IgV-Fc (inert) H18V/A26S/E35D/M47L/V68M/A71G/D90G (Fc fusion)”, for which the Fold change to WT CD80 was found to be 79 fold in test [20], 18 fold in test [23] and 448 fold in test [24]. Also, the MFI at 33.3 nM in [21] amounted to 24900 MFI; in [22], 8060 MFI; in [25], 73900 MFI.

For the origin of these results see patent publication US20220177587A1, “METHODS AND USES OF VARIANT CD80 FUSION PROTEINS AND RELATED CONSTRUCTS” (Alpine Immune Sciences, Inc., priority 2018, published 2022).
